According to patent US20120277142A1 (HANALL BIOPHARMA, published 2012):
Numbering of substitutions follows the chain as printed.

B1: Met-TNFRI171 (receptor)
chain: MDSVCPQGKYIHPQNNSICCTKCHKGTYLYNDCPGPGQDTDCRECESGSFTASENHLRHCLSCSKCRKEMGQVEISSCTVDRDTVCGCRKNQYRHYWSENLFQCFNCSLCLNGTVHLSCQEKQNTVCTCHAGFFLRENECVSCSNCKKSLECTKLCLPQIENVKGTEDSGTT
notes: also called Wild-type (TNFRI171); wild-type TNFRI
B2: TNFRI171-A8 (receptor)
chain: B1 chain with S53F, H56F, R58P, H59A
B3: TNFRI171-A15 (receptor)
chain: B1 chain with S53Y, H56F, R58P, H59A
B4: TNFRI171-A21 (receptor)
chain: B1 chain with S53I, H56F, R58P, H59G
B5: TNFRI171-A26 (receptor)
chain: B1 chain with S53I, E54P, H56F, R58P, H59G
B6: TNFRI171-A16 (receptor)
chain: B1 chain with S53K, H56F, R58P, H59A
B7: TNFRI171-A18 (receptor)
chain: B1 chain with S53H, H56F, R58P, H59A
B8: TNFRI171-A2 (receptor)
chain: B1 chain with S53I, H56F, R58P, H59A
B9: TNFRI171-A9 (receptor)
chain: B1 chain with S53M, H56F, R58P, H59A
B10: TNFRI171-A22 (receptor)
chain: B1 chain with S53M, H56F, R58P, H59G
B11: TNFRI171-A10 (receptor)
chain: B1 chain with S53W, H56F, R58P, H59A
B12: TNFRI171-A30 (receptor)
chain: B1 chain with S53I, E54P, H56F, R58P, H59A
B13: Met-TNFRI126 (receptor)
chain: MDSVCPQGKYIHPQNNSICCTKCHKGTYLYNDCPGPGQDTDCRECESGSFTASENHLRHCLSCSKCRKEMGQVEISSCTVDRDTVCGCRKNQYRHYWSENLFQCFNCSLCLNGTVHLSCQEKQNTVC
notes: also called Wild-type (TNFRI126); wild-type TNFRI
B14: TNFRI126-S63 (receptor)
chain: B13 chain with L29V, S53M, H56F, R58P, H59G, K122N
notes: Met-TNFRI126 superlead mutant made in E. coli
B15: TNFRI105-S31 (receptor)
chain: MDSVCPQGKYIHPQNNSICCTKCHKGTYVYNDCPGPGQDTDCRECESGSFTAIENFLPACLSCSKCRKEMGQVEISSCTVDRDTVCGCRKNQYRHYWSENLFQCFN
notes: Met-TNFRI105 superlead mutant made in E. coli
B16: TNFRI105-S46 (receptor)
chain: B15 chain with A59G
notes: as for B15
B17: TNFRI105-S41 (receptor)
chain: B15 chain with I53H
notes: as for B15
B18: TNFRI105-S47 (receptor)
chain: B15 chain with I53M, A59G
notes: as for B15
B19: TNFRI105-S36 (receptor)
chain: B15 chain with I53M
notes: as for B15
B20: Met-TNFRI105 (receptor)
chain: B15 chain with V29L, I53S, F56H, P58R, A59H
notes: also called Wild-type (TNFRI105)

biological target: T1, TNF-α (UniProt P01375 77-233, limits assumed); assay: cell-based or functional assay

Binder	Relative Activity (Cytotoxicity-neutralizing activity) (fold)
B1	1
B2	120
B3	142
B4	226
B5	196
B6	139
B7	126
B8	207
B9	158
B10	242
B11	44
B12	127

biological target: T1, TNF-α; assay: competition ELISA: sample vs plate-bound TNFRI190 for TNF-α, from IC50, relative to wild-type TNFRI126
Procedure: (§1) Each well was washed three times with 300 μL of washing buffer (0.05% Tween-20, PBS, pH 7.4) and incubated at room temperature for 2 hours with 300 μL of a blocking buffer (5% skim milk, PBS, pH 7.4). Then, each well was washed as mentioned above. A sample of interest was diluted to concentrations of 500 nM, 125 nM, 31 nM, 7.8 nM, 1.9 nM, 0.48 nM, 0.12 nM, and 0.03 nM in series and loaded in an amount of 100 μL into each well in duplicate. To each well was added 100 μL of 50 ng/ml TNF-α, followed by incubation at room temperature for 2 hours. After the wells were washed with a washing buffer, 100 μg/mL anti-TNF-α antibody solution was diluted 1/1000, added in an amount of 100 μL per each well, and incubated at room temperature for 2 hours. After the plates were washed with a washing buffer, a substrate was added in an amount of 100 μL to each well and reacted at room temperature for 15 min. In each well, 100 μL of the substrate 3,3′,5,5′-tetramethylbenzidine (RnD, Cat. No: DY999) was reacted at room temperature for 15 min, followed by adding 50 μL of 1.0 M sulfuric acid (Samchun Chemical, Cat. No: 52129) to each well to stop the reaction.
Affinity of Met-TNFRI and Met-TNFRI mutants for TNF-α was determined by measuring an absorbance change with concentration and evaluating IC₅₀ value by measuring an absorbance change with concentration.

Binder	Affinity (%)
B13	100

biological target: T1, TNF-α; assay: competition ELISA: sample vs plate-bound TNFRI190 for TNF-α, from IC50, relative to wild-type TNFRI171
Procedure: as §1
(§2) The affinity of the Met-TNFRI for TNF-α was assayed using the same procedure as in [Experimental Example 1]

Binder	Relative Affinity for Ligand (%)
B1	100

biological target: T1, TNF-α; assay: competition ELISA: sample vs plate-bound TNFRI190 for TNF-α, from IC50, relative to wild-type TNFRI126; remark: another data set of the same source
Procedure: as §1, §2

Binder	Relative Affinity for Ligand (%)
B13	100
B14	486

biological target: T1, TNF-α; assay: competition ELISA: sample vs plate-bound TNFRI190 for TNF-α, from IC50, relative to wild-type TNFRI105
Procedure: as §1, §2

Binder	Relative Affinity for Ligand (%)
B15	453
B16	547
B17	403
B18	497
B19	459
B20	100
